Patent US11419921B2, “Methods of treating neurological disorders” (EnClear Therapies, Inc., priority 2018, dated 2022)

Assays:
[1] = test system: iCell® motor neurons; test: Toxicity of (GR)10, untreated or protease-treated, on iCell motor neurons; format: cell-based; conditions: (GR)10 concentrations of 25, 50 and 100 μM
Method: 200 μM of (GR)10 were diluted in human cerebrospinal fluid (CSF) and 400 μL were applied to each immobilized proteases. The reaction was incubated 5 minutes at room temperature with end-to-end mixing. Columns were spun down 1 minute at 1,000 Xg to recover digested GR dipeptides. Columns were washed with 12 resin volumes of PBS. The procedure was repeated with 60 minutes digestion time. 100 μL of each samples were transferred to a clean tube, flash-frozen and subsequently used for LC/MS quantification of GR repeats of different lengths. The remaining 300 μL of each samples were flash-frozen and used to assess neuron toxicity.
300 μL of CSF were applied to each immobilized proteases and incubated 60 minutes at room temperature with end-to-end mixing. Columns were spun down 1 minute at 1,000 Xg to recover treated CSF. Samples were flash-frozen and subsequently used to test neuron toxicity.
This example describes the reduced toxicity of (GR)10 on in vitro neuronal cells by digestion of (GR)10 with proteases.

[2] = test system: (GR)10; test: Cleavage of (GR)10 by commercial immobilized trypsin (agarose resin) in PBS; format: biochemical; conditions: (GR)10 50 μM
Method: • Immobilized TPCK-trypsin on agarose resin; ThermoFisher Cat #20230 Lot #TA264999; Activity: 555 TAME units/mL of gel; the resin was washed with PBS • TPCK-trypsin; ThermoFisher Cat #20233 Lot #SB241185; Activity: 308 TAME units/mg of protein • NOTE: One TAME unit is equal to 1 μmole of TAME (p-toluenesulfonyl-L-arginine methyl ester in the presence of Ca2+) hydrolyzed/min at pH 8.2, 25° C. (One TAME unit=19.2 National Formulatory units=57.5 BAEE units
110 μL of 50 μM (GR)10 dipeptide repeats prepared in PBS was added to immobilized trypsin in 0.8 mL centrifuge columns and incubated for the prescribed time at room temperature with end-to-end mixing resin. Columns were spun down 1 minute at 1,000 Xg to recover digested GR dipeptides. Columns were washed with 110 μL of PBS to increase (GR)10 recovery. 100 μL of each samples were transferred to a new tube and 5 μL of 10% TFA followed by 300 μL of Dilution Solution were added. The reaction mixtures were analyzed by LC/MS to determine the concentration of GR repeats of different lengths.

[3] = 1 TAME unit = 1 μmole TAME hydrolyzed/min at pH 8.2, 25° C.; cited from earlier work

B1: resins having immobilized clostripain: clostripain immobilized on agarose resin (protein, UniProt P09870 51-181; P09870 191-526, looked up)
Clostripain light chain: NKNQKVTIMYYCDADNNLEGSLLNDIEEMKTGYKDSPNLNLIALVDRSPRYSSDEKVLGEDFSDTRLYKIEHNKANRLDGKNEFPEISTTSKYEANMGDPEVLKKFIDYCKSNYEADKYVLIMANHGGGAR
Clostripain heavy chain: AICWDDSNLDKNGEADCLYMGEISDHLTEKQSVDLLAFDACLMGTAEVAYQYRPGNGGFSADTLVASSPVVWGPGFKYDKIFDRIKAGGGTNNEDDLTLGGKEQNFDPATITNEQLGALFVEEQRDSTHANGRYDQHLSFYDLKKAESVKRAIDNLAVNLSNENKKSEIEKLRGSGIHTDLMHYFDEYSEGEWVEYPYFDVYDLCEKINKSENFSSKTKDLASNAMNKLNEMIVYSFGDPSNNFKEGKNGLSIFLPNGDKKYSTYYTSTKIPHWTMQSWYNSIDTVKYGLNPYGKLSWCKDGQDPEINKVGNWFELLDSWFDKTNDVTGGVNHYQW
modifications: immobilized on agarose resin
[1]
  Effect of protease treatment of (GR)10 on (GR)10 toxicity: abrogation of (GR)10 toxicity

B2: Immobilized trypsin: Immobilized TPCK-trypsin on agarose resin; ThermoFisher Cat #20230 (protein, UniProt P00760 24-246, looked up)
Serine protease 1: IVGGYTCGANTVPYQVSLNSGYHFCGGSLINSQWVVSAAHCYKSGIQVRLGEDNINVVEGNEQFISASKSIVHPSYNSNTLNNDIMLIKLKSAASLNSRVASISLPTSCASAGTQCLISGWGNTKSSGTSYPDVLKCLKAPILSDSSCKSAYPGQITSNMFCAGYLEGGKDSCQGDSGGPVVCSGKLQGIVSWGSGCAQKNKPGVYTKVCNYVSWIKQTIASN
modifications: TPCK-treated, immobilized on agarose resin
[2]; 0.625 TAME Units, 0 min
  (GR)1 concentration: BLQ
  (GR)2 concentration: BLQ
  (GR)4 concentration: 0.1 µM
  (GR)6 concentration: BLQ
  (GR)8 concentration: 1.0 µM
  (GR)10 concentration: 68.4 µM
[2]; 0.625 TAME Units, 5 min
  (GR)1 concentration: 248.4 µM
  (GR)2 concentration: 114.9 µM
  (GR)4 concentration: 0.3 µM
  (GR)6 concentration: 0.1 µM
  (GR)8 concentration: BLQ
  (GR)10 concentration: 3.1 µM
[2]; 0.625 TAME Units, 10 min
  (GR)1 concentration: 307.0 µM
  (GR)2 concentration: 89.6 µM
  (GR)4 concentration: 0.2 µM
  (GR)6 concentration: BLQ
  (GR)8 concentration: BLQ
  (GR)10 concentration: 2.1 µM
[2]; 0.625 TAME Units, 30 min
  (GR)1 concentration: 411.7 µM
  (GR)2 concentration: 11.8 µM
  (GR)4 concentration: 0.1 µM
  (GR)6 concentration: BLQ
  (GR)8 concentration: BLQ
  (GR)10 concentration: 0.6 µM
[2]; 0.625 TAME Units, 60 min
  (GR)1 concentration: 465.4 µM
  (GR)2 concentration: 5.6 µM
  (GR)4 concentration: BLQ
  (GR)6 concentration: BLQ
  (GR)8 concentration: BLQ
  (GR)10 concentration: 1.0 µM
[2]; 0.625 TAME Units, 120 min
  (GR)1 concentration: 385.8 µM
  (GR)2 concentration: 1.0 µM
  (GR)4 concentration: BLQ
  (GR)6 concentration: BLQ
  (GR)8 concentration: BLQ
  (GR)10 concentration: 0.1 µM
[2]; 6.25 TAME Units, 0 min
  (GR)1 concentration: 0.2 µM
  (GR)2 concentration: 0.2 µM
  (GR)4 concentration: 0.1 µM
  (GR)6 concentration: BLQ
  (GR)8 concentration: BLQ
  (GR)10 concentration: 32.7 µM
[2]; 6.25 TAME Units, 5 min
  (GR)1 concentration: 391.0 µM
  (GR)2 concentration: 1.2 µM
  (GR)4 concentration: BLQ
  (GR)6 concentration: BLQ
  (GR)8 concentration: BLQ
  (GR)10 concentration: 0.9 µM
[2]; 6.25 TAME Units, 10 min
  (GR)1 concentration: 505.5 µM
  (GR)2 concentration: 3.8 µM
  (GR)4 concentration: 0.1 µM
  (GR)6 concentration: BLQ
  (GR)8 concentration: BLQ
  (GR)10 concentration: 1.6 µM
[2]; 6.25 TAME Units, 30 min
  (GR)1 concentration: 480.2 µM
  (GR)2 concentration: 0.2 µM
  (GR)4 concentration: BLQ
  (GR)6 concentration: BLQ
  (GR)8 concentration: BLQ
  (GR)10 concentration: 0.9 µM
[2]; 6.25 TAME Units, 60 min
  (GR)1 concentration: 409.6 µM
  (GR)2 concentration: 0.1 µM
  (GR)4 concentration: BLQ
  (GR)6 concentration: BLQ
  (GR)8 concentration: BLQ
  (GR)10 concentration: 0.2 µM
[2]; 6.25 TAME Units, 120 min
  (GR)1 concentration: 396.0 µM
  (GR)2 concentration: 0.2 µM
  (GR)4 concentration: BLQ
  (GR)6 concentration: 0.1 µM
  (GR)8 concentration: BLQ
  (GR)10 concentration: 0.1 µM
[3]
  Activity: 555 TAME units/mL of gel
